Results from patent publication US20220227830A1, “QD DOSING OF GIP RECEPTOR AGONIST PEPTIDE COMPOUNDS AND USES THEREOF” (Takeda Pharmaceutical Company Limited, priority 2020, published 2022).
Starred links: 1 amine or outer side, 2 acyl side, 3 side chain; linkers in the order of their positions; H or OH if unused. Non-standard residues stand in square brackets, D forms with d. Groups on a side chain read outwards from the residue. No end group written: not given here. *: point of attachment. 2OEGgE = O=C(CC[C@H](N[*:1])C(=O)O)NCCOCCOCC(=O)NCCOCCOCC(=O)[*:2]; G2E3 = linker of 2 Gly and 3 Glu (read GGEEE); C16 diacid = O=C(O)CCCCCCCCCCCCCCC(=O)*; C15 diacid = O=C(O)CCCCCCCCCCCCCC(=O)*; γGlu = O=C(O)[C@H](CCC(=O)[*:2])N[*:1]; NMeY = CN[C@@H](Cc1ccc(O)cc1)C(=O)O; AEEA = NCCOCCOCC(=O)O; Aib = CC(C)(N)C(=O)O

How the values were obtained:
[1] = target: T1, full-length human GIPR with an N-terminal FLAG tag (human, UniProt P48546 22-466); experiment: cell-based or functional assay
T1 sequence (looked up): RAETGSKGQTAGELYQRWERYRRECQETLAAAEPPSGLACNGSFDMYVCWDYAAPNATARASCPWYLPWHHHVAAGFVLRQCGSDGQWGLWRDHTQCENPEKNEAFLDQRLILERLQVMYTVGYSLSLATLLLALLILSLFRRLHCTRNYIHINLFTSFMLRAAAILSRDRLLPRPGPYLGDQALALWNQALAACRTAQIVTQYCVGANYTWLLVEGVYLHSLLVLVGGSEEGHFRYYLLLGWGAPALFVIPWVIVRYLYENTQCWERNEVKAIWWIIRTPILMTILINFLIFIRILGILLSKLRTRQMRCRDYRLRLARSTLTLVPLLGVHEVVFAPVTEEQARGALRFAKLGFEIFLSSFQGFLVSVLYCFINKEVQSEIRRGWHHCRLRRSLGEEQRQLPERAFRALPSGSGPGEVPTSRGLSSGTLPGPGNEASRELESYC

[2] = target: full-length human GLP-1R with an N-terminal FLAG tag (human, UniProt P43220 24-463); experiment: cell-based or functional assay

Binder | Human GIPR cAMP, HEK293T EC50 [1] | Human GLP1R cAMP HEK293T EC50 [2]
[NMeY][Aib]EGTFISDYSIALDRIHQK([AEEA-AEEA-γGlu-C16 diacid])NFVNWLLAQK (not fully specified) [Compound 4] | 0.0005 nM | 692 nM
[NMeY][Aib]EGTFISDYSIALDR[Aib]AQ[Aib]NFVNWLLAQKPSSGAPPPS-OH (not fully specified (residue 30)) [Compound 52] | 0.0003 nM | 240 nM
[NMeY][Aib]EGTFISDYSIAKDR[Aib]AQ[Aib]NFVNWLLAQRPSSGAPPPS-NH2 (not fully specified (residue 14)) [Compound 77] | 0.0002 nM | 331 nM
[NMeY][Aib]EGTFISDYSIALDR[Aib]K([G5gE-C15 diacid])Q[Aib]DFVNWLLAQSPSSGAPPPS-NH2 [Compound 74] | 0.0004 nM | 550 nM
[NMeY][Aib]EGTFISDYSIALDR[Aib]K([G5gE-C15 diacid])Q[Aib]DFVNWLLAQRPSSGAPPPS-NH2 [Compound 73] | 0.0005 nM | 1000 nM
[NMeY][Aib]EGTFISDYSIALDRIHQK([AEEA-AEEA-γGlu-C15 diacid])NFVNWLLAQK (also: Me-Tyr methyl position not given here) [Compound 5] | 0.0008 nM | 955 nM
Y[Aib]EGTFISDYSIAKDR[Aib]AQ[Aib]NFVNWLLAQSPSSGAPPPS-OH (not fully specified (residues 1, 14); also: Me-Tyr methyl position not given here) [Compound 51] | 0.0003 nM | 1000 nM
[NMeY][Aib]EGTFISDYSIALDRKHQ[Aib]NFVNWLLAQRPSSGAPPPS-NH2 (not fully specified (residue 17)) [Compound 63] | 0.0002 nM | 141 nM
[NMeY][Aib]EGTFISDYSIALDRKHQ[Aib]NFVNWLLAQSPSSGAPPPS-NH2 (not fully specified (residue 17)) [Compound 65] | 0.0003 nM | 129 nM
[NMeY][Aib]EGTFISDYSIAK([G4-γGlu-C15 diacid])DR[Aib]AQ[Aib]NFVNWLLAQSPSSGAPPPS-NH2 [Compound 78] | 0.0003 nM | 112 nM
[NMeY][Aib]EGTFISDYSIALDR[Aib]K([G2E3-C15 diacid])Q[Aib]NFVNWLLAQSPSSGAPPPS-OH (not fully specified) [Compound 55] | 0.0002 nM | 240 nM
[NMeY]GEGTFISDYSIAK([2OEGgE-C16 diacid])DRIHQ[Aib]NFVNWLLAQK (not fully specified) [Compound 6] | 0.0537 nM | 692 nM
[NMeY][Aib]EGTFISDYSIALDRKHQ[Aib]NFVNWLLAQSPSSGAPPPS-NH2 (not fully specified (residue 17)) [Compound 64] | 0.0005 nM | 1000 nM
YXEGTFISDYSIALDRXHQXDFVNWLLAQRPSSGAPPPS (not fully specified; Me-Tyr1; Aib 2,20; Km17 = Lys(gEgE-C15DA); C-term NH2) [Compound 66] | 0.0004 nM | 1000 nM
YXEGTFISDYSIALDRXHQXDFVNWLLAQRPSSGAPPPS (not fully specified; Me-Tyr1; Aib 2,20; Km17 = Lys(gE-C15DA); C-term NH2) [Compound 67] | 0.0006 nM | 525 nM
YXEGTFISDYSIALDRXHQXDFVNWLLAQSPSSGAPPPS (not fully specified; Me-Tyr1; Aib 2,20; Km17 = Lys(gE-C15DA); C-term NH2) [Compound 69] | 0.0004 nM | 1000 nM
YXEGTFISDYSIALDRXHQXDFVNWLLAQSPSSGAPPPS (not fully specified; Me-Tyr1; Aib 2,20; Km17 = Lys(linker printed 'GS'-C15DA); C-term NH2) [Compound 68] | 0.0007 nM | 200 nM
[NMeY]SEGTFISDYSIAK([2OEG-γGlu-C16 diacid])DRIHQ[Aib]NFVNWLLAQK (not fully specified (N-terminus)) [Compound 7] | 0.0016 nM | 257 nM
[NMeY][Aib]EGTFISDYSIALDR[Aib]K([2OEGgE-C15 diacid])Q[Aib]DFVNWLLAQRPSSGAPPPS-NH2 (N-terminus assumed; SMILES CC[C@H](C)[C@H](NC(=O)[C@H](CO)NC(=O)[C@H](Cc1ccc(O)cc1)NC(=O)[C@H](CC(=O)O)NC(=O)[C@H](CO)NC(=O)[C@@H](NC(=O)[C@H](Cc1ccccc1)NC(=O)[C@@H](NC(=O)CNC(=O)[C@H](CCC(=O)O)NC(=O)C(C)(C)NC(=O)[C@H](Cc1ccc(O)cc1)NC)[C@@H](C)O)[C@@H](C)CC)C(=O)N[C@@H](C)C(=O)N[C@@H](CC(C)C)C(=O)N[C@@H](CC(=O)O)C(=O)N[C@@H](CCCNC(=N)N)C(=O)NC(C)(C)C(=O)N[C@@H](CCCCNC(=O)COCCOCCNC(=O)COCCOCCNC(=O)CC[C@H](NC(=O)CCCCCCCCCCCCCC(=O)O)C(=O)O)C(=O)N[C@@H](CCC(N)=O)C(=O)NC(C)(C)C(=O)N[C@@H](CC(=O)O)C(=O)N[C@@H](Cc1ccccc1)C(=O)N[C@H](C(=O)N[C@@H](CC(N)=O)C(=O)N[C@@H](Cc1c[nH]c2ccccc12)C(=O)N[C@@H](CC(C)C)C(=O)N[C@@H](CC(C)C)C(=O)N[C@@H](C)C(=O)N[C@@H](CCC(N)=O)C(=O)N[C@@H](CCCNC(=N)N)C(=O)N1CCC[C@H]1C(=O)N[C@@H](CO)C(=O)N[C@@H](CO)C(=O)NCC(=O)N[C@@H](C)C(=O)N1CCC[C@H]1C(=O)N1CCC[C@H]1C(=O)N1CCC[C@H]1C(=O)N[C@@H](CO)C(N)=O)C(C)C) [Compound 75] | 0.0011 nM | 1000 nM
Y[Aib]EGTFISDYSI[Aib]KDR[Aib]AQ[Aib]NFVNWLLAQRPSSGAPPPS-OH (not fully specified (residues 1, 14)) [Compound 56] | 0.0003 nM | 263 nM
[NMeY][Aib]EGTFISDYSIALDR[Aib]K([G5gE-C15 diacid])Q[Aib]NFVNWLLAQSPSSGAPPPS-NH2 [Compound 71] | 0.0006 nM | 955 nM
[NMeY][Aib]EGTFISDYSIALDR[Aib]K([AEEA-AEEA-γGlu-C15 diacid])Q[Aib]DFVNWLLAQSPSSGAPPPS-NH2 (N-terminus assumed; SMILES CC[C@H](C)[C@H](NC(=O)[C@H](CO)NC(=O)[C@H](Cc1ccc(O)cc1)NC(=O)[C@H](CC(=O)O)NC(=O)[C@H](CO)NC(=O)[C@@H](NC(=O)[C@H](Cc1ccccc1)NC(=O)[C@@H](NC(=O)CNC(=O)[C@H](CCC(=O)O)NC(=O)C(C)(C)NC(=O)[C@H](Cc1ccc(O)cc1)NC)[C@@H](C)O)[C@@H](C)CC)C(=O)N[C@@H](C)C(=O)N[C@@H](CC(C)C)C(=O)N[C@@H](CC(=O)O)C(=O)N[C@@H](CCCNC(=N)N)C(=O)NC(C)(C)C(=O)N[C@@H](CCCCNC(=O)COCCOCCNC(=O)COCCOCCNC(=O)CC[C@H](NC(=O)CCCCCCCCCCCCCC(=O)O)C(=O)O)C(=O)N[C@@H](CCC(N)=O)C(=O)NC(C)(C)C(=O)N[C@@H](CC(=O)O)C(=O)N[C@@H](Cc1ccccc1)C(=O)N[C@H](C(=O)N[C@@H](CC(N)=O)C(=O)N[C@@H](Cc1c[nH]c2ccccc12)C(=O)N[C@@H](CC(C)C)C(=O)N[C@@H](CC(C)C)C(=O)N[C@@H](C)C(=O)N[C@@H](CCC(N)=O)C(=O)N[C@@H](CO)C(=O)N1CCC[C@H]1C(=O)N[C@@H](CO)C(=O)N[C@@H](CO)C(=O)NCC(=O)N[C@@H](C)C(=O)N1CCC[C@H]1C(=O)N1CCC[C@H]1C(=O)N1CCC[C@H]1C(=O)N[C@@H](CO)C(N)=O)C(C)C) [Compound 76] | 0.0005 nM | 295 nM
[NMeY][Aib]EGTFISDYSIALDRK([G2E3-C15 diacid])AQ[Aib]NFVNWLLAQSPSSGAPPPS-OH (also: Me-Tyr methyl position not given here) [Compound 53] | 0.0001 nM | 617 nM
[NMeY][Aib]EGTFISDYSIALDR[Aib]AQ[Aib]NFVNWLLAQK([OEGgEgE-C15 diacid])PSSGAPPPS-NH2 [Compound 70] | 0.0009 nM | 91.2 nM
